Common to all, as to experiment: BLI
Assay [1] deals with hexameric NiV G: two G ectodomain headgroups linked by a foldon trimerization domain via short glycine linkers (Nipah virus (Malaysia) | ).
Assay [2] deals with NiV G trimer: NiV G head domain residues 172-602 coupled to an N-terminal foldon domain ( | Nipah virus (Malaysia), UniProt Q9IH62 172-602).
The target in assay [3] is NiV G ferritin 24-mer nanoparticle: NiV G ectodomain residues 172-602 linked to the C-terminus of fe (Nipah virus (Malaysia), UniProt Q9IH62 172-602).
Assay [4] concerns the target Stalk G.
Assay [5] addresses Mono G.

B1: m102.4 monoclonal antibody (HeV G-specific antibody), human IgG1/kappa (antibody, V domains shown)
VH: EVQVIQSGADVKKPGSSVKVSCKSSGGTFSKYAINWVRQAPGQGLEWMGGIIPILGIANYAQKFQGRVTITTDESTSTAYMELSSLRSEDTAVYYCARGWGREQLAPHPSQYYYYYYGMDVWGQGTTVTVSS
VL: EIVMTQSPGTLSLAPGERATLSCWASQSVRNNYLAWYQQKPGQAPRLVIYNGSTRATGIPDRFSGSGSGTDFTLTISRLDPEDFAVYYCQQYGNSRRVTFGGGTKVEIK
B1: the Kd in assay [1] stood at 86.2 nM; in assay [2] it was 153 nM; in assay [3], 17.8 nM; in assay [4], 112 nM; in assay [5] it was 402 nM. Also, the koff amounted to 0.0596 s⁻¹ in assay [1]; 0.0857 s⁻¹ in assay [2]; 0.0279 s⁻¹ in assay [3]; 0.0849 s⁻¹ in assay [4]; 0.131 s⁻¹ in assay [5].

As a reminder, the Kd is the concentration at which binding is half-saturated. A low value points to a tighter complex. Usually koff stands for the first-order rate constant of dissociation.
